First the molecules themselves.
T1: MT2R-Luc, protein from fusion of the melatonin receptor MT2 with luciferase (UniProt P49286 1-362)
T1 construct: whole, on cells; Control fusion protein; also called melatonin-Luc MT2 receptor
T1 sequence (looked up): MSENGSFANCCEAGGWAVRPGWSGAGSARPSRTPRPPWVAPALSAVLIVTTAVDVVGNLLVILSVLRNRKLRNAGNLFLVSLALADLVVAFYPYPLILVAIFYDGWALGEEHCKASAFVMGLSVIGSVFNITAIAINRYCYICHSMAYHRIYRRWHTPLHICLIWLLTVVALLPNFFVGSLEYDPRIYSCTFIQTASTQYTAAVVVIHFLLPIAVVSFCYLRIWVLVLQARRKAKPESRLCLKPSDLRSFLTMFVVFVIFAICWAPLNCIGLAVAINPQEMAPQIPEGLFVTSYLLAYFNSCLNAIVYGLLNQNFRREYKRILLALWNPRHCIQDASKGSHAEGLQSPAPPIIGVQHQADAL

B1: MYO47-Luc (other)
chain: MAGIKALISLSFGGAIGLMFLMLGCALPIYNKYWPLFVLFFYILSPIPYCIARRLVDDTDAMSNACKELAIFLTTGIVVSAFGLPIVFARAHLIEWGACALVLTGNTVIFATILGFFLVFGSNDDFSWQQW
notes: also called MY047-Rluc; not shown: Renilla luciferase (vector pcDNA3-Rluc)
B2: MYO47-YFP (other)
chain: B1 chain
notes: also called MY047-YFP; not shown: YFP (Topaz, vector pcDNA3-YFP)
B3: OB-RGRP-YFP (other)
chain: MAGVKALVALSFSGAIGLTFLMLGCALEDYGVYWPLFVLIFHAISPIPHFIAKRVTYDSDATSSACRELAYFFTTGIVVSAFGFPVILARVAVIKWGACGLVLAGNAVIFLTIQGFFLIFGRGDDFSWEQW
notes: Expressed in HeLa or HEK cells from pcDNA3-OB-RGRP-YFP; also called OB-RGRP tagged with YFP at its C-terminal tail; OB-RGRP-YFB; not shown: YFP coding region from vector pGFPtpz-N1 (Cytogem-Topaze, Packard)
B4: YFP-OB-RGRP (other)
chain: B3 chain
notes: The construction of this plasmid is not described on its own; only the double fusion YFP-OB-RGRP-Luc is; also called OB-RGRP tagged at the N-terminal with YFP; not shown: YFP (Topaz, from pGFPtpz-N1) at the N-terminus
B5: OB-RGRP-Luc (other)
chain: B3 chain
notes: Expressed in cells from pcDNA3-OB-RGRP-Luc; also called OB-RGRP-Rluc; not shown: Renilla luciferase, coding region from vector pRL-CMV (Promega)
B6: 6Myc-OB-RGRP (4TM) (other)
chain: B3 chain
notes: not shown: The N-terminal 6xMyc tag (the 6myc fragment of pCDNA3-RSV-6Myc) and its junction

The target in one data set is OB-Rl. The data set is described as follows: cell-based or functional assay.
Data set [1] concerns the target T2, IR-YFP, protein from fusion of the insulin receptor with YFP (UniProt P06213 28-1382).
T2 construct: whole, on cells; Control fusion protein; also called construct of the insulin receptor tagged with YFP; not shown: YFP
The data set is described as follows: BRET in living cells, equimolar coexpression. The protocol: (§1) 48 h after transfection, the COS-7, HeLa or HEK 293 cells expressing the OB-R fusion proteins were detached and washed in PBS. 1-2×10⁵ cells were distributed into wells of optiplate plates (96-well, Packard Instrument Company, Meriden, Conn.) in the presence or absence of the ligands, and incubated at 25° C. Alternatively, the same procedure was carried out with membranes prepared from the cells expressing the various constructs. The substrate, coelenterazine h (Molecular Probes, Eugene, Oreg.), was added at a final concentration of 5 μmol.L⁻¹ and the readings were carried out with a Fusion™ luminometer/fluorimeter (Packard Instrument Company, Meriden, Conn.), which makes it possible to measure luminescence through two filters (luciferase filter: 485±10 nm; YFP filter: 530±12.5 nm). The BRET ratio was defined as the difference in emission at 530 nm/485 nm of the cells cotransfected with the Luc and YFP fusion proteins and the emission at 530 nm/485 nm of the Luc fusion protein transfected alone into the cells. The results are expressed as milliBRET units (mBU), 1 mBRET corresponding to the values of the differences in the ratios multiplied by 1000.
(§2) We used BRET technology to study a possible interaction between OB-R and OB-RGRP in living cells. An energy transfer was constitutively observed in the cells coexpressing the OB-Rₛ-Luc construct and the OB-RGRP-YFP construct, indicating proximity of the interaction partners (FIG. 7). The same results were obtained in cells coexpressing OB-Rₛ-Luc and the MYO47-YFP construct, and also in the reverse orientation: in cells coexpressing OB-RGRP-Luc and OB-Rₛ-YFP, or in cells coexpressing MYO47-Luc and OB-Rₛ-YFP. The specificity of these interactions was confirmed by the lack of energy transfer between OB-Rₛ-Luc, OB-RGRP-Luc, MYO47-Luc and a construct of the insulin receptor tagged with YFP (Boute et al. (2001) Mol Pharmacol 60, 640-645), and also in the reverse orientation: by the lack of energy transfer between a construct of the insulin receptor tagged with Luc and the OB-Rₛ-YFP, OB-RGRP-YFP and MYO47-YFP construct.
Background: Bioluminescence resonance energy transfer reports proximity on the nanometre scale.

For data set [2], the target named is T3, construct of the insulin receptor tagged with Luc (UniProt P06213 28-1382).
T3 construct: whole, on cells; Control fusion protein; also called IR-Luc
The data set is described as follows: BRET in living cells, equimolar coexpression. The protocol: as §1, §2

Data set [3] deals with the molecule itself. The data set is described as follows: SDS-PAGE and anti-YFP immunoblot of HeLa cell lysates, with or without DSP crosslinker; self-association. The protocol: (§3) Study of the oligomerization of OB-RGRP with SDS-PAGE experiments and immunoprecipitations. FIG. 4a: the cells expressing the fusion proteins indicated were treated or not treated with 2 mmol.L⁻¹ dithiobis(succinimidyl propionate) (DSP) in PBS (1×, pH7.4) in order to crosslink the protein complexes. The proteins were separated by SDS-PAGE and the proteins from fusions with YFP were detected using a specific anti-YFP antibody. FIG. 4b: the cells expressing the construct 6Myc-OB-RGRP were solubilized with 1% of digitonin or 5% of SDS and the solubilized material was immunoprecipitated with an anti-myc antibody. The precipitates were subjected to separation by SDS-PAGE and the proteins tagged with myc were detected with an anti-myc antibody.
(§4) The total lysates were prepared by washing the cells once with cold PBS (pH 7.4) and denatured by adding loading buffer (30 mmol.L⁻¹ Tris HCl, pH 6.8, 1% glycerol, 5% SDS, 50 mmol.L⁻¹ DTT and 0.05% bromophenol blue). The total lysates or the immunoprecipitates were incubated for 10 minutes at 90° C. and then loaded onto 10% acrylamide gel for separation by electrophoresis (SDS-PAGE).
OB-RGRP was tagged with YFP at its C-terminal tail and expressed in HeLa cells. The proteins were separated by polyacrylamide gel electrophoresis under denaturing conditions (SDS-PAGE) and immunoblotting experiments were carried out with an anti-YFP antibody. […]
On the technique in general: A western blot detects proteins with antibodies after separation by electrophoresis.

In data set [4] the target is B5. The data set is described as follows: BRET in living HEK cells; the signal also rises hyperbolically to saturation with the OB-RGRP-YFP/OB-RGRP-Luc ratio. The protocol:
(§5) Study of the oligomerization of OB-RGRP in live HEK cells, by BRET technology. FIG. 6a: the fusion proteins indicated were coexpressed at an equimolar ratio, and BRET measurement experiments were carried out. FIG. 6b: constant amounts of the plasmid OB-RGRP-Luc were coexpressed with increasing amounts of the plasmid OB-RGRP-YFP and BRET measurements were carried out. MT2R-Luc, protein from fusion of the melatonin receptor MT2 with luciferase.
as §1, with “The BRET ratio was defined as the difference in emission at 530 nm/485 nm of the cells cotransfected with the Luc and YFP fusion proteins and the emission at 530 nm/485 nm of the Luc fusion protein transfected alone into the cells.” left out, “1000. […]” for “1000.”

Data set [5] addresses T1, MT2R-Luc, protein from fusion of the …. The data set is described as follows: BRET in living HEK cells, equimolar coexpression. The protocol:
as §5
as §1, with “The BRET ratio was defined as the difference in emission at 530 nm/485 nm of the cells cotransfected with the Luc and YFP fusion proteins and the emission at 530 nm/485 nm of the Luc fusion protein transfected alone into the cells.” left out, “1000. […]” for “1000.”

Data set [6] concerns the molecule itself. The data set is described as follows: SDS-PAGE and anti-YFP immunoblot; self-association. The protocol: as §3, §4
The target of data set [7] is B5. The data set is described as follows: BRET in living HEK cells, equimolar coexpression. The protocol:
as §5
as §1, with “The BRET ratio was defined as the difference in emission at 530 nm/485 nm of the cells cotransfected with the Luc and YFP fusion proteins and the emission at 530 nm/485 nm of the Luc fusion protein transfected alone into the cells.” left out, “1000. […]” for “1000.”

Data set [8] deals with the molecule itself. The data set is described as follows: anti-myc immunoprecipitation, SDS-PAGE and anti-myc blot; self-association.

As for leptin (ligand), in the data set with OB-Rl, the activation of a luciferase reporter gene under STAT3-response elements, EC50 was 0.05 nM; the activation of a luciferase reporter gene under STAT5-response elements, EC50 worked out at 0.05 nM; the increase in the basal activation of the reporter gene for STAT3 is 1.5 fold. As to B1, in data set [1], the binding result is “no binding”. Regarding B2, the binding result in data set [2] is listed as “no binding”. For B3, the binding result in [3] is listed as “binds”; in data set [2], “no binding”; in the data set with OB-RGRP-Luc [4] it was “binds”; in data set [5], “no binding”. In the case of B4, the binding result (in data set [6]; with OB-RGRP-Luc [7]) was “binds” in each case.

With B5, in [1], the binding result is recorded as “no binding”.

On to B6, for which, in [8], the binding result is given as “binds”.
